Changes are numbered by the printed parent chain. Starred links: 1 amine or outer side, 2 acyl side, 3 side chain; linkers in the order of their positions; H or OH if unused. Non-standard residues stand in square brackets, D forms with d. Groups on a side chain read outwards from the residue. No end group written: not given here. *: point of attachment. C20 diacid = O=C(O)CCCCCCCCCCCCCCCCCCC(=O)*; Phe(4-CN) = N#Cc1ccc(C[C@H](N)C(=O)O)cc1; αMePhe(2-F) = C[C@](N)(Cc1ccccc1F)C(=O)O; γGlu = O=C(O)[C@H](CCC(=O)[*:2])N[*:1]; AEEA = NCCOCCOCC(=O)O; Aib = CC(C)(N)C(=O)O
B1: Example 382 (peptide)
chain: YXQGTFTSDYXIXLDKKAQXAFIEYLIEGGPSSGAPPPS
modifications: synthetic construct; SITE 2: note = 2-Aminoisobutyric Acid; SITE 11: note = alpha-methyl-L-serine; SITE 13: note = alpha-methyl-leucine; SITE 17: note = Lysine is chemically modified through conjugation of the epsilon-amino group of the Lysine side chain with (2-[2-(2-Amino-ethoxy)-ethoxy]-acetyl)2-
B2: Example 387 (peptide)
chain: B1 chain with F6X, X11S, X13L, I27E
modifications: not fully specified; synthetic construct; SITE 2: note = 2-Aminoisobutyric Acid; SITE 6: note = alpha-methyl-2-fluoro-L-phenylalanine; SITE 17: note = Lysine is chemically modified through conjugation of the epsilon-amino group of the Lysine side chain with (2-[2-(2-Amino-ethoxy)-ethoxy]-acetyl)-(gamma-Glu)-CO-(CH2) 16-
B3: Example 392 (peptide)
chain: B1 chain with F6X, X11S, X13L, I27E
modifications: synthetic construct; SITE 2: note = 2-Aminoisobutyric Acid; SITE 6: note = alpha-methyl-L-phenylalanine; SITE 17: note = Lysine is chemically modified through conjugation of the epsilon-amino group of the Lysine side chain with (2-[2-(2-Amino-ethoxy)-ethoxy]-acetyl)-(gamma-Glu)-CO-(CH2) 16-CO2H; SIT
B4: Example 385 (peptide)
chain: B1 chain with F6X, X11S, X13L, I27L
modifications: not fully specified; synthetic construct; SITE 2: note = 2-Aminoisobutyric Acid; SITE 6: note = alpha-methyl-2-fluoro-L-phenylalanine; SITE 17: note = Lysine is chemically modified through conjugation of the epsilon-amino group of the Lysine side chain with (2-[2-(2-Amino-ethoxy)-ethoxy]-acetyl)2-(gamma-Glu)-CO-(CH2 )18
B5: Example 386 (peptide)
chain: YXQGTXTSDYSILLDKKAQXAFIEYLLEGGPSSGAPPPE
modifications: not fully specified; synthetic construct; SITE 2: note = 2-Aminoisobutyric Acid; SITE 6: note = alpha-methyl-2-fluoro-L-phenylalanine; SITE 17: note = Lysine is chemically modified through conjugation of the epsilon-amino group of the Lysine side chain with (2-[2-(2-Amino-ethoxy)-ethoxy]-acetyl)2-(gamma-Glu)-CO-(CH2 )18
B6: Example 388 (peptide)
chain: B5 chain with L27E
modifications: not fully specified; synthetic construct; SITE 2: note = 2-Aminoisobutyric Acid; SITE 6: note = alpha-methyl-2-fluoro-L-phenylalanine; SITE 17: note = Lysine is chemically modified through conjugation of the epsilon-amino group of the Lysine side chain with (2-[2-(2-Amino-ethoxy)-ethoxy]-acetyl)-(gamma-Glu)-CO-(CH2) 16-
B7: Example 368 (peptide)
chain: YXQGTXTSDYXIXLDXKAQXXFIEXLLEGGPSSGEPPPS
modifications: synthetic construct; SITE 2: note = 2-Aminoisobutyric Acid; SITE 6: note = alpha-methyl-2-fluoro-L-phenylalanine; SITE 11: note = alpha-methyl-L-serine; SITE 13: note = alpha-methyl-leucine; SITE 16: note = L-ornithine; SITE 17: note = Lysine is chemically modified through conjugation of the epsilon
B8: Example 381 (peptide)
chain: B7 chain with Y1H, X21A, X25Y, S39E
modifications: synthetic construct; SITE 2: note = 2-Aminoisobutyric Acid; SITE 6: note = alpha-methyl-2-fluoro-L-phenylalanine; SITE 11: note = alpha-methyl-L-serine; SITE 13: note = alpha-methyl-leucine; SITE 16: note = L-ornithine; SITE 17: note = Lysine is chemically modified through conjugation of the epsilon
B9: Example 390 (peptide)
chain: B7 chain with I12S, X13L, S39E
modifications: synthetic construct; SITE 2: note = 2-Aminoisobutyric Acid; SITE 6: note = alpha-methyl-L-phenylalanine; SITE 11: note = alpha-methyl-L-serine; SITE 16: note = L-ornithine; SITE 17: note = Lysine is chemically modified through conjugation of the epsilon-amino group of the Lysine side chain with (2-[

Biological target: hGLP-1R (Homo sapiens, UniProt P43220)
Assay: cell-based or functional assay

Chain of hGLP-1R (P43220 24-463): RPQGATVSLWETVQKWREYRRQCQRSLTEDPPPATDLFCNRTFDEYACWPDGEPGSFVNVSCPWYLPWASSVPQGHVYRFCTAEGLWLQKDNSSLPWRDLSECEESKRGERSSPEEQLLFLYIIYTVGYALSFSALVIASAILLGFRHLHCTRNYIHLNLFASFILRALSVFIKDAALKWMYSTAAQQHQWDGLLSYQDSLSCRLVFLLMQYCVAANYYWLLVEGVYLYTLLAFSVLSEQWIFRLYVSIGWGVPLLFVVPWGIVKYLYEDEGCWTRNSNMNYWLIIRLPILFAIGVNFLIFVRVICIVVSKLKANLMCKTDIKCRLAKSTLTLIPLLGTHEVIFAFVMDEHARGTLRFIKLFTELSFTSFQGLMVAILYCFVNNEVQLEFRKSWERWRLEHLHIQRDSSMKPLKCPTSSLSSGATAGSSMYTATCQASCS

In order of falling Relative cAMP EC50:
1. Y[Aib]QGT[αMePhe(2-F)]TSD[Phe(4-CN)]SKLLDKIAQK([AEEA-γGlu-C20 diacid])AFIEYLIEGGPSSGAPPPSGS-NH2 [Example 363]  1.47 nM
2. Y[Aib]QGT[αMePhe(2-F)]TSD[Phe(4-CN)]SKLLDKIAQK([AEEA-γGlu-C20 diacid])AFIEYLIEGGPSSGEPPPSGS-NH2 [Example 364]  1.1 nM
3. Y[Aib]QGT[αMePhe(2-F)]TSDYSKILDKIAQKAFIEYLIEGGPSSGAPPPSEG-NH2 (not fully specified (residue 20)) [Example 355]  1.01 nM
4. Y[Aib]QGT[αMePhe(2-F)]TSDYSKLLDKIAQKAFIEYLIEGGPSSGAPPPEGE-NH2 (not fully specified (residue 20)) [Example 357]  0.625 nM
5. B6  0.373 nM
6. B1  0.291 nM
7. B5  0.278 nM
8. B2  0.255 nM
9. B3  0.253 nM
10. B7  0.242 nM
11. B4  0.235 nM
12. B8  0.157 nM
13. B9  0.134 nM

In order of rising cAMP Rel EC50, nM (1% HSA):
1. B9  19.6 nM
2. B8  24.5 nM
3. B2  26.5 nM
4. B7  37.4 nM
5. B3  41.5 nM
6. B6  52.5 nM
7. B1  61.5 nM
8. B4  86.1 nM
9. B5  98.6 nM
10. Y[Aib]QGT[αMePhe(2-F)]TSD[Phe(4-CN)]SKLLDKIAQK([AEEA-γGlu-C20 diacid])AFIEYLIEGGPSSGAPPPSGS-NH2 [Example 363]  217 nM
11. Y[Aib]QGT[αMePhe(2-F)]TSDYSKLLDKIAQKAFIEYLIEGGPSSGAPPPEGE-NH2 (not fully specified (residue 20)) [Example 357]  248 nM
12. Y[Aib]QGT[αMePhe(2-F)]TSD[Phe(4-CN)]SKLLDKIAQK([AEEA-γGlu-C20 diacid])AFIEYLIEGGPSSGEPPPSGS-NH2 [Example 364]  260 nM
13. Y[Aib]QGT[αMePhe(2-F)]TSDYSKILDKIAQKAFIEYLIEGGPSSGAPPPSEG-NH2 (not fully specified (residue 20)) [Example 355]  351 nM

Biological target: T1, human GIP receptor (human) (UniProt P48546)
T1 sequence (looked up): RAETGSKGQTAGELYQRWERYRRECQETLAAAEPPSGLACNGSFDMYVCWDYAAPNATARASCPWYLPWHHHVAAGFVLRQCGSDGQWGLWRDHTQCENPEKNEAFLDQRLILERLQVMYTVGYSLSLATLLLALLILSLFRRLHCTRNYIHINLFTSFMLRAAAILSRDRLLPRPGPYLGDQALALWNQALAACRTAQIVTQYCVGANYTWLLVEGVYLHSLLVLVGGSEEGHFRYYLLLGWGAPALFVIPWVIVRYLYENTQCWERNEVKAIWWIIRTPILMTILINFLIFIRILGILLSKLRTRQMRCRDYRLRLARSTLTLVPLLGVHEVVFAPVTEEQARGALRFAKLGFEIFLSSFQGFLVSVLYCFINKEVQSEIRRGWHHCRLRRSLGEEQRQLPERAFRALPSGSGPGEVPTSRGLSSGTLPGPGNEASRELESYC
Assay: cell-based or functional assay

In order of falling Relative cAMP EC50:
1. Y[Aib]QGT[αMePhe(2-F)]TSD[Phe(4-CN)]SKLLDKIAQK([AEEA-γGlu-C20 diacid])AFIEYLIEGGPSSGEPPPSGS-NH2 [Example 364]  0.457 nM
2. Y[Aib]QGT[αMePhe(2-F)]TSD[Phe(4-CN)]SKLLDKIAQK([AEEA-γGlu-C20 diacid])AFIEYLIEGGPSSGAPPPSGS-NH2 [Example 363]  0.375 nM
3. B9  0.122 nM
4. Y[Aib]QGT[αMePhe(2-F)]TSDYSKILDKIAQKAFIEYLIEGGPSSGAPPPSEG-NH2 (not fully specified (residue 20)) [Example 355]  0.0811 nM
5. Y[Aib]QGT[αMePhe(2-F)]TSDYSKLLDKIAQKAFIEYLIEGGPSSGAPPPEGE-NH2 (not fully specified (residue 20)) [Example 357]  0.077 nM
6. B3  0.0571 nM
7. B6  0.0462 nM
8. B1  0.0368 nM
9. B2  0.0276 nM
10. B5  0.0156 nM
11. B8  0.0156 nM
12. B4  0.0141 nM
13. B7  0.0121 nM

In order of rising cAMP Rel EC50, nM (1% HSA):
1. B7  2.62 nM
2. B4  4.03 nM
3. B5  5.62 nM
4. B2  5.64 nM
5. B8  7.01 nM
6. B6  14.1 nM
7. B1  17.7 nM
8. B3  28.7 nM
9. Y[Aib]QGT[αMePhe(2-F)]TSDYSKILDKIAQKAFIEYLIEGGPSSGAPPPSEG-NH2 (not fully specified (residue 20)) [Example 355]  33.2 nM
10. B9  37.8 nM
11. Y[Aib]QGT[αMePhe(2-F)]TSDYSKLLDKIAQKAFIEYLIEGGPSSGAPPPEGE-NH2 (not fully specified (residue 20)) [Example 357]  42.9 nM
12. Y[Aib]QGT[αMePhe(2-F)]TSD[Phe(4-CN)]SKLLDKIAQK([AEEA-γGlu-C20 diacid])AFIEYLIEGGPSSGAPPPSGS-NH2 [Example 363]  91.8 nM
13. Y[Aib]QGT[αMePhe(2-F)]TSD[Phe(4-CN)]SKLLDKIAQK([AEEA-γGlu-C20 diacid])AFIEYLIEGGPSSGEPPPSGS-NH2 [Example 364]  101 nM

Biological target: human glucagon receptor (human) (UniProt P47871)
Assay: cell-based or functional assay

Chain of human glucagon receptor (human) (P47871 26-477): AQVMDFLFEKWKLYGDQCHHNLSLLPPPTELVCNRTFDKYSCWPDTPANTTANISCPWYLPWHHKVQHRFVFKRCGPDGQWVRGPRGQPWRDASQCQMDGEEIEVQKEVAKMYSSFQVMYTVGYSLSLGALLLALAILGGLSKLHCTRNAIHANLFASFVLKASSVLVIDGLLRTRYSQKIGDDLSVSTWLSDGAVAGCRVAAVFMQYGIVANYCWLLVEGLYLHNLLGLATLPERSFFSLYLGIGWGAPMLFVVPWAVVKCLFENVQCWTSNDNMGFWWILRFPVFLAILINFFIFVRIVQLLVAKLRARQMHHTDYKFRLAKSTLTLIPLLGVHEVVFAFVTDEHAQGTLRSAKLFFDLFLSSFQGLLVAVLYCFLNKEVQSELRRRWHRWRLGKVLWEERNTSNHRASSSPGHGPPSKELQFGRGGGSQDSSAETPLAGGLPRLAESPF

In order of falling Relative cAMP EC50:
1. Y[Aib]QGT[αMePhe(2-F)]TSD[Phe(4-CN)]SKLLDKIAQK([AEEA-γGlu-C20 diacid])AFIEYLIEGGPSSGAPPPSGS-NH2 [Example 363]  13.6 nM
2. Y[Aib]QGT[αMePhe(2-F)]TSD[Phe(4-CN)]SKLLDKIAQK([AEEA-γGlu-C20 diacid])AFIEYLIEGGPSSGEPPPSGS-NH2 [Example 364]  10.2 nM
3. Y[Aib]QGT[αMePhe(2-F)]TSDYSKLLDKIAQKAFIEYLIEGGPSSGAPPPEGE-NH2 (not fully specified (residue 20)) [Example 357]  6.21 nM
4. Y[Aib]QGT[αMePhe(2-F)]TSDYSKILDKIAQKAFIEYLIEGGPSSGAPPPSEG-NH2 (not fully specified (residue 20)) [Example 355]  5.87 nM
5. B1  3.72 nM
6. B9  3.08 nM
7. B3  3.02 nM
8. B6  2.15 nM
9. B2  2.14 nM
10. B5  1.7 nM
11. B8  1.39 nM
12. B4  1 nM
13. B7  0.481 nM

In order of falling cAMP Rel EC50, nM (1% HSA):
1. Y[Aib]QGT[αMePhe(2-F)]TSD[Phe(4-CN)]SKLLDKIAQK([AEEA-γGlu-C20 diacid])AFIEYLIEGGPSSGAPPPSGS-NH2 [Example 363]  4080 nM
2. Y[Aib]QGT[αMePhe(2-F)]TSDYSKILDKIAQKAFIEYLIEGGPSSGAPPPSEG-NH2 (not fully specified (residue 20)) [Example 355]  3430 nM
3. Y[Aib]QGT[αMePhe(2-F)]TSD[Phe(4-CN)]SKLLDKIAQK([AEEA-γGlu-C20 diacid])AFIEYLIEGGPSSGEPPPSGS-NH2 [Example 364]  3190 nM
4. Y[Aib]QGT[αMePhe(2-F)]TSDYSKLLDKIAQKAFIEYLIEGGPSSGAPPPEGE-NH2 (not fully specified (residue 20)) [Example 357]  1810 nM
5. B1  1050 nM
6. B5  734 nM
7. B4  700 nM
8. B3  611 nM
9. B6  603 nM
10. B9  549 nM
11. B2  184 nM
12. B8  176 nM
13. B7  111 nM

From patent US20240270821A1, “GIP/GLP1/GCG TRI-RECEPTOR AGONISTS AND USES THEREOF” (priority 2023, published 2024)
